For this test, the target named is HIV-1 capsid (CA) protein (HIV-1). The experiment in a line: cryo-EM structure; cryo-ET of cryo-FIB lamellae with template matching and subtomogram averaging (C6 symmetry kept) of CA hexamers in capsid lattices of isolated VLP cores incubated with permeabilized CEM cells, EGS-fixed; cores outside the nucleus (approaching and docking), traversing the NPC and imported.

One may read the stoichiometry N as the number of molecules, sites or subunits per partner or assembly. “HIV-1 capsid (CA) protein (natural protein)” gave a stoichiometry N of 6.
